Assay results published in PMC5595344, “Interaction of the cyclic-di-GMP binding protein FimX and the Type 4 pilus assembly ATPase promotes pilus assembly” (PLoS Pathogens, 2017).

What was measured:
FimX = biological target: T1, FimX (Pseudomonas aeruginosa, UniProt Q9HUK6); experiment: surface plasmon resonance (BIAcore T100), FimX immobilized on CM5 chip; format: binding
T1 construct: dimer in solution (ca. 150 kDa by SEC)

PilB = PilB (Pseudomonas aeruginosa, UniProt P22608); details: 1 mM ATP; minimal activity
[1] = biological target: the molecule itself; experiment: SEC; Superdex 200 10/300; 50 μM hexameric PilB and 50 μM dimeric FimX or FimX(AAA), 30 min at RT, 25 mM Tris pH 8, 150 mM NaCl, 5 mM MgCl2, 500 μM c-di-GMP; each protein also run alone; fractions on SDS-PAGE
[2] = biological target: the molecule itself; experiment: SEC; preparative SEC after affinity purification; Superdex 200 Increase, 25 mM Tris pH 8.0, 250 mM NaCl, 5 mM MgCl2, 5 mM β-mercaptoethanol

Nc1nc2c(ncn2[C@@H]2O[C@@H]3CO[P@](=O)(O)O[C@H]4[C@@H](O)[C@H](n5cnc6c(=O)[nH]c(N)nc65)O[C@@H]4CO[P@](=O)(O)O[C@H]3[C@H]2O)c(=O)[nH]1 [c-di-GMP]
Kd (FimX): 88 ± 5.6 nM

Nc1ncnc2c1ncn2[C@@H]1O[C@H](COP(=O)(O)OP(=O)(O)OP(=O)(O)O)[C@@H](O)[C@H]1O [ATP]
ATPase activity (PilB): PilB shows minimal ATPase activity in vitro that is not altered by addition of FimX

B1: 6X-His tagged FimX (natural protein)
chain: MAIEKKTIRLLILEDSQNEAERLVSLFRNAGHATRVHRLTSPEDLAETLQQSWDLLIAAPTSECLEPGEALATLRRQSRDIPFIQLVADNSSDAITDALMLGAQDALPQGEDERLVLVANRELAGLAERRARRAAELALREAEKRCQLLLDSSVDAITYVHDGMHIYANRSYMALFGYEDAEELEGLPVIDLIASCDQGAFKDFLKGYQNDQRQTELVCTGVKLDGQEFKARISLSAATYDGEPCIQVVIRGEVDNAELEEKLREVSSQDPVTGLYNRSHFLDLMDAAVQQAVTARKPSTLAYIHLNGYPSLQADHGLSGIDLLLGQLAGLMREQFGEEADLARFGDSIFAALFKGKTPEQAQAALQRLLKKVENHLFELNGRSAQATLSIGVAGLDEKTAKAQDVMNRAHRCADDAARKGGSQIKQYNPAEELAAAAQRGDVIAILQQALETNSFRLLFQPVISLRGDSHENYEVLLRLLNPQGQEVPPAEFLHAAKEAGLAEKIDRWVILNSIKLLAEHRAKGHQTKLFVHLSSASLQDPGLLPWLGVALKAARLPPESLVFQISEADATSYLKQAKQLTQGLATLHCQAAISQFGCSLNPFNALKHLTVQFIKIDGSFVQDLNQVENQEILKGLIAELHEQQKLSIVPFVESASVLATLWQAGATYIQGYYLQGPSQAMDYDFSSGDE
notes: also called dimeric FimX; purified FimX; source: purified as 6X-His tagged protein as described previously [17]
stoichiometry N [1]: 2

B2: 10XHis-MBP tagged recombinant PilB (natural protein)
chain: MNDSIQLSGLSRQLVQANLLDEKTAVQAQAQAQRNKLSLVTHLVQSKLVSGLALAELSAEQFGIAYCDLNSLDKESFPRDAISEKLVRQHRVIPLWRRGNKLFVGISDPANHQAINDVQFSTGLTTEAILVEDDKLGLAIDKLFESATDGLAGLDDVDLEGLDIGSADKSTQEDASAEADDAPVVRFVNKMLLDAIKGGSSDLHFEPYEKIYRVRFRTDGMLHEVAKPPIQLASRISARLKVMAGLDISERRKPQDGRIKMRVSKTKSIDFRVNTLPTLWGEKIVMRILDSSSAQMGIDALGYEEDQKELYLAALKQPQGMILVTGPTGSGKTVSLYTGLNILNTTDINISTAEDPVEINLEGINQVNVNPRQGMDFSQALRAFLRQDPDVIMVGEIRDLETAEIAIKAAQTGHMVMSTLHTNSAAETLTRLLNMGVPAFNLATSVNLIIAQRLARKLCSHCKKEHEVPRETLLHEGFPEDKIGTFKLYSPVGCDHCKNGYKGRVGIYEVVKNTPALQRIIMEEGNSIEIAEQARKEGFNDLRTSGLLKAMQGITSLEEVNRVTKD
notes: also called hexameric PilB; purified PilB; source: E. coli BL21(DE3), purified (Ni-NTA, amylose resin, SEC)
stoichiometry N [2]: 6

B3: 10XHis-MBP tagged recombinant PilT (natural protein)
chain: MDITELLAFSAKQGASDLHLSAGLPPMIRVDGDVRRINLPPLEHKQVHALIYDIMNDKQRKDFEEFLETDFSFEVPGVARFRVNAFNQNRGAGAVFRTIPSKVLTMEELGMGEVFKRVSDVPRGLVLVTGPTGSGKSTTLAAMLDYLNNTKYHHILTIEDPIEFVHESKKCLVNQREVHRDTLGFSEALRSALREDPDIILVGEMRDLETIRLALTAAETGHLVFGTLHTTSAAKTIDRVVDVFPAEEKAMVRSMLSESLQSVISQTLIKKIGGGRVAAHEIMIGTPAIRNLIREDKVAQMYSAIQTGGSLGMQTLDMCLKGLVAKGLISRENAREKAKIPENF
notes: also called hexameric PilT; source: E. coli BL21(DE3), purified (Ni-NTA, amylose resin, SEC)
stoichiometry N [2]: 6
